Assay results: article PMC8826447 (Nature Communications, 2022)
Ends that are not written are not given here. * marks the point of attachment. FITC = O=C1OC2(c3ccc(O)cc3Oc3cc(O)ccc32)c2ccc(NC(=S)*)cc21; βAla = NCCC(=O)O

B1: TLK2 peptide spanning residues 3–23 (peptide)
peptide: EELHSLDPRRQELLEARFTGV
notes: TLK2, human, residues 3-23; also called N-terminal TLK2 peptide; unlabeled TLK2 peptide; source: synthetic peptide (Genscript, >98% purity)
B2: histone H3.1 peptide (ASF1-binding fragment) (peptide)
peptide: TIMPKDIQLARRIRGERA
notes: also called Histone H3 peptide; source: synthetic peptide (Genscript, >98% purity)
B3: fluorescein-labeled TLK2 tracer peptide (FITC-βAla-LHSLDPRRQELLEARFTG) (peptide)
peptide: {FITC-βAla}-LHSLDPRRQELLEARFTG
notes: TLK2, human, N-terminal stretch; also called fluorescently labeled TLK2 peptide; TLK2 fluorescent peptide; source: synthetic peptide (Tufts University Core Facility, purified by HPLC)

Experiments:
[1] = target: T1, ASF1a-NT domain (ASF1a residues 1–155) (human, UniProt Q9Y294 1-155); assay: differential scanning fluorimetry; melting temperature of ASF1a 1–155 with or without 160 μM TLK2 peptide; 20 mM HEPES, 250 mM NaCl, 0.1 mM TCEP, pH 7.5; SYPRO orange; ramp 4 to 95 °C; details: both partners purified
T1 construct: anti-silencing factor 1a (ASF1a), human, N-terminal immunoglobulin-like domain, residues 1-155; Cloned into pGEX4T-1 as an N-terminal GST fusion and eluted with glutathione; No cleavage step is described; the structures are described with ASF1a residues only (151-155 residues per chain); also called ASF1a 1–155; ASF1-NT; source: E. coli BL21 (DE3) Rosetta 2, purified (glutathione-Sepharose, SEC)

[2] = target: T1, ASF1a-NT domain (ASF1a residues 1–155); assay: fluorescence polarisation; competition: 63 nM ASF1a 1–155 with 5 nM FITC tracer peptide and rising unlabeled peptide (15.6 nM to 256 μM for the TLK2 peptide); 50 mM Tris pH 8.0, 100 mM NaCl, 10 mM MgCl2, 1.2 mM DTT, 0.012% Brij-35, 0.2 mg/ml BSA; 295 K; details: both partners purified

T1 sequence (Q9Y294 1-155): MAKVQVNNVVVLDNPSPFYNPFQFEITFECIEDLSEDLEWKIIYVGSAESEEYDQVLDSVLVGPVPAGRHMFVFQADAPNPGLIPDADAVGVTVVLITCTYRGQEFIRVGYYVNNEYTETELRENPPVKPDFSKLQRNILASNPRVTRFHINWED

Row | Binder | increase of melting temperature (160 μM peptide) [1] [°C] | EC50 [2] [nM] | binding result [2]
1 | B1 | ~5 | 2200 | –
2 | B2 | – | – | binds
3 | B3 | – | – | binds
